Data taken from patent US20220380768A1 (TALLAC THERAPEUTICS, published 2022).
Changes are numbered by the printed parent chain.

B1: TNT70 (antibody, human IgG1, kappa, V domains shown)
VH: QVQLLESGGGVVQPGGSLRLSCAASGFAFSIYDMNWVRQAPGKGLEWVSAISSGGGTTYYADSVKGRFTISRDNAKNSLYLQMNSLRAEDTAVYYCARHSGYGTHWGVLFAYWGRGTLVTVSS
VL: DIQMTQSPSSLSASVGDRVTITCRASQDIHGYLNWYQQKPGKAPKLLIYYTSILHSGVPSRFSGSGSGTDFTLTISSLQPEDFATYFCQQGNTLPWTFGQGTKLEIKR
B2: TNT86 (antibody, human IgG1, kappa, V domains shown)
VH: B1 VH
VL: DIVMTQTPLSLSVTPGQPASISCRASQDIHGYLNWYQQKPGQSPQLLIYYTSILHSGVPDRFSGSGSGTDFTLKISRVEAEDVGVYFCQQGNTLPWTFGGGTKLEIKR
B3: TNT82 (antibody, human IgG1, kappa, V domains shown)
VH: B1 VH
VL: EIVLTQSPATLSLSPGERATLSCRASQDIHGYLNWYQQKPGQAPRLLIYYTSILHSGIPARFSGSGPGTDFTLTISSLEPEDFAVYYCQQGNTLPWTFGGGTKLEIKR
B4: TNT79 (antibody, human IgG1, kappa, V domains shown)
VH: B1 VH with Q1E, L5V, V11L, A28T, I31S, D33E, A50Y, G54S, G56S, T58I
VL: B1 VL with D28S, H30S, G31S, Y50A, T51A, I53S, H55Q, F87Y
B5: TNT78 (antibody, human IgG1, kappa, V domains shown)
VH: B1 VH
VL: B1 VL with D28S, H30S, G31S, Y50A, T51A, I53S, H55Q, F87Y
B6: TNT87 (antibody, human IgG1, kappa, V domains shown)
VH: B1 VH with Q1E, L5V, V11L, A28T, I31S, D33E, A50Y, G54S, G56S, T58I
VL: B2 VL
B7: TNT83 (antibody, human IgG1, kappa, V domains shown)
VH: B1 VH with Q1E, L5V, V11L, A28T, I31S, D33E, A50Y, G54S, G56S, T58I
VL: B3 VL
B8: TNT76 (antibody, human IgG1, kappa, V domains shown)
VH: QVQLQESGPGLVKPSDTLSLTCTVSGFAFSIYDMSWIRQPPGKGLEWIAYISSGGGTTYYNPSLKSRVTISVDTSKNQFSLKLSSVTAADTAVYYCARHSGYGTHWGVLFAYWGRGTLVTVSS
VL: B1 VL with L11V, N34A, I53S, H55Q, F87Y
B9: TNT75 (antibody, human IgG1, kappa, V domains shown)
VH: B1 VH with Q1E, L5V, V11L, A28T, I31S, D33E, A50Y, G54S, G56S, T58I
VL: B1 VL with L11V, N34A, I53S, H55Q, F87Y
B10: TNT85 (antibody, human IgG1, kappa, V domains shown)
VH: B1 VH with Q1E, L5V, V11L, N35S, S49A, A50Y, A61P, S63T, A75S, S78T
VL: B2 VL
B11: TNT74 (antibody, human IgG1, kappa, V domains shown)
VH: B1 VH
VL: B1 VL with L11V, N34A, I53S, H55Q, F87Y
B12: TNT73 (antibody, human IgG1, kappa, V domains shown)
VH: B1 VH with Q1E, L5V, V11L, N35S, S49A, A50Y, A61P, S63T, A75S, S78T
VL: B1 VL with L11V, N34A, I53S, H55Q, F87Y
B13: TNT80 (antibody, human IgG1, kappa, V domains shown)
VH: B8 VH
VL: B1 VL with D28S, H30S, G31S, Y50A, T51A, I53S, H55Q, F87Y
B14: TNT69 (antibody, human IgG1, kappa, V domains shown)
VH: B1 VH with Q1E, L5V, V11L, N35S, S49A, A50Y, A61P, S63T, A75S, S78T
VL: B1 VL
B15: TNT88 (antibody, human IgG1, kappa, V domains shown)
VH: B8 VH
VL: B2 VL

What was measured:
[1] = target: T1, human CD22 on B cells of human PBMCs (human, UniProt P20273 20-847); test: flow cytometry; Alexa Fluor 647-labelled antibody on CD20+ B cells of human PBMCs
T1 construct: whole, on cells; also called CD22 on human B cells
Protocol: (§1) Binding of humanized anti-CD22 antibodies to human or cynomolgus PBMCs was measured by flow cytometry. Trima residuals were received from Vitalant and cynomolgus monkey whole blood were received from BioIVT. Both were diluted 1:4 with Phosphate Buffered Saline (PBS, Gibco). Diluted blood was split into two tubes and underplayed with 15 mL Ficoll-Paque (GE Healthcare). Tubes were centrifuged for 30 minutes at 400×g. PBMCs were collected from the interface, washed and resuspended in FACS buffer (PBS with 0.5% Bovine Serum Albumin (Gibco)). 100K PBMCs from human and cynomolgus monkey were plated in 96-well plates and pelleted by centrifugation for five minutes at 400×g and stained at 4° C. in 100 μl Fixable Viability Dye eFluor 780 (Thermo Fisher) diluted 1:4000 in PBS. Cells were centrifuged and stained at 4° C. in 100 μl FACS buffer for 30 minutes containing FcR Blocking Reagent (Miltenyi Biotec), anti-CD20 and Alexa Fluor 647 conjugated CD22 binding antibodies, which were labeled using Molecular Probes Alexa Fluor 647 Protein Labeling kit (Molecular Probes) according to manufacturer's protocol. Cells were centrifuged and washed twice in 200 μl FACS buffer and fixed in 100 μl 0.5% paraformaldehyde. Cells were analyzed on Attune NxT Flow Cytometer (Thermo Fisher), with subsequent data analysis by Flowjo 10.7 (Treestar). Dead cells were excluded by gating on the eFluor 780-negative population. CD20+ cells were gated to identify B cells and median fluorescent intensity for CD22 was determined.

[2] = target: T2, cynomolgus monkey CD22 on B cells of cynomolgus PBMCs (cynomolgus monkey); test: flow cytometry; Alexa Fluor 647-labelled antibody on CD20+ B cells of cynomolgus PBMCs
T2 construct: whole, on cells; also called cynomolgus CD22; Cyno CD22
Protocol: as §1

[3] = target: T1, human CD22 on B cells of human PBMCs; test: flow cytometry; Alexa Fluor 647-labelled antibody, human PBMCs
Protocol: as §1
(§2) The fold increase in binding was determined by calculating the ratio of CD22 median fluorescent intensity on CD20⁺ over CD20⁻ cells.

[4] = target: T3, human CD22 (d1 to d7 domain according to NP_001762.2) (human, UniProt P20273 20-687); test: SPR; summary table, column 'CD22 KD (nM)'
T3 construct: domain: d1 to d7 domain; also called human CD22-gly; Siglec-2

[5] = target: T3, human CD22 (d1 to d7 domain according …); test: SPR; mAb supernatant captured on protein A chip, human CD22 injected
Protocol: Binding of humanized anti-CD22 antibodies to human CD22 was measured by surface plasmon resonance (SPR). For assessment of binding by SPR, biotinylated protein A (15 μg/mL) was immobilized to the surface of an NLC chip. 30 μL of mAb supernatant was added to 150 μL of PBS-T and captured over the protein A surface. Serial dilutions of human CD22-gly (300 nM, 3× dilution) were injected over the mAb-coated chips, and binding kinetics were determined. Chips were regenerated using 4:1 v/v of Pierce IgG elution butter/4M NaCl.

[6] = target: T2, cynomolgus monkey CD22 on B cells of …; test: flow cytometry; Alexa Fluor 647-labelled antibody, cynomolgus PBMCs
Protocol: as §1, §2

| Binder | CD22 Median Fluorescent Intensity on CD20+ cells [1] | CD22 Median Fluorescent Intensity on CD20+ cells [2] | CD22: CD20+/CD20- (ratio of median fluorescent intensity) [3] [fold] | Kd [4] [nM] | Kd [5] [nM] | koff [5] [s⁻¹] | kon [5] [M⁻¹ s⁻¹] | CD22: CD20+/CD20- (ratio of median fluorescent intensity) [6] [fold] |
| --- | --- | --- | --- | --- | --- | --- | --- | --- |
| B1 | 1560 | 1290 |  |  |  |  |  |  |
| B2 | 1570 | 1430 | 23.9 | 1.1 | 1.09 | 0.000141 | 130000 | 10.9 |
| B3 | 1520 | 1170 | 23.9 | 0.9 | 0.937 | 0.000156 | 167000 | 12.6 |
| B4 | 1300 | 349 |  | 23 |  |  |  |  |
| B5 | 1210 | 112 | 19.8 | 25 | 24.9 | 0.00485 | 195000 | 1.2 |
| B6 | 1440 | 1370 |  | 0.7 |  |  |  |  |
| B7 | 1490 | 1400 | 23 | 6 | 5.94 | 0.0016 | 269000 | 10.8 |
| B8 | 1190 | 140 |  |  |  |  |  |  |
| B9 | 1630 | 588 | 26.7 | 30 | 30 | 0.0084 | 280000 | 6.7 |
| B10 | 1580 | 1380 | 23.1 | 1.3 | 1.25 | 0.000169 | 135000 | 9.6 |
| B11 | 1310 |  |  | 16 | 15.6 |  |  |  |
| B12 | 1410 | 216 | 19.9 | 14 | 14.5 | 0.0023 | 158000 | 1.9 |
| B13 | 1210 | 159 |  |  |  |  |  |  |
| B14 | 1610 | 1410 | 25.4 | 0.6 | 0.624 | 0.000126 | 201000 | 14.9 |
| B15 | 1530 | 1270 | 26.2 | 1.3 | 1.34 | 0.000289 | 215000 | 14.7 |
